Consider 3 molecules from paper PMC9723548, “Sulfate adenylyl transferase kinetics and mechanisms of metabolic inhibitors of microbial sulfate respiration” (ISME Communications, 2021).

The target of data set [1] is T1, sulfate adenylyl transferase (Sat) / ATP sulfurylase (Oleidesulfovibrio alaskensis, UniProt Q30Z34).
T1 construct: gene Dde_2265
T1 sequence (Q30Z34 1-427): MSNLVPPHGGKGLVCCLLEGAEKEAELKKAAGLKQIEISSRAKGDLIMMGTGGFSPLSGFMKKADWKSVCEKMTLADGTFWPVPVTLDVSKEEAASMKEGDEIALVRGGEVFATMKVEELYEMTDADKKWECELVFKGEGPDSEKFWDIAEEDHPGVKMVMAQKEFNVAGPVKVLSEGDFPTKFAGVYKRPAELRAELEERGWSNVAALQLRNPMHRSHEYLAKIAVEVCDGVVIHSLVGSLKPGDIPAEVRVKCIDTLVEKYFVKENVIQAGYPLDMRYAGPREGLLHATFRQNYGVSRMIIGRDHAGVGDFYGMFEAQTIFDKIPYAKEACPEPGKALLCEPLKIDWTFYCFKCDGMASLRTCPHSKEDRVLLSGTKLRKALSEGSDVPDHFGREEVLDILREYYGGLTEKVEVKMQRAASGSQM
Put plainly: pyrophosphate accumulation, modified molybdenum blue assay.

Substrate in data set [2]: O=[Se](=O)(O)O
Put plainly: purified protein.

Substrate in data set [3]: [O]=[Cr](=[O])([OH])[OH]
The data set is described as follows: purified protein. The note with it: alternative substrate in place of sulfate; co-substrate ATP.

For `O=[N+]([O-])O` [NO3^−], in data set [1], the affinity, expressed as Ki, was 3600 ± 270 µM.
With `[O-][Cl+2]([O-])O` [ClO3^−], the affinity in data set [1], expressed as Ki, was 316 ± 17 µM.

B1: sulfate adenylyl transferase (Sat) / ATP sulfurylase (Oleidesulfovibrio alaskensis G20) (protein)
chain: T1 sequence (Q30Z34 1-427)
B1: in data set [2], the Michaelis constant (Km) (commonly the substrate concentration at which the rate is half of its maximum) was found to be 1770 ± 550 µM and the catalytic efficiency (kcat/Km) – broadly, the turnover number divided by the Michaelis constant – worked out at 160 M⁻¹ s⁻¹. Further, in data set [3], the Km is 793 ± 140 µM, the kcat (commonly the maximal rate divided by the concentration of active sites) was found to be 16 s⁻¹ and the kcat/Km is 20000 M⁻¹ s⁻¹.
